Assay results reported in patent US7422883B2, “Map kinase integrin-binding domain” (Inter-K Pty Limited, priority 2000, dated 2008).
No end group written: not given here. *: point of attachment. Biotin = O=C1N[C@H]2[C@H](CS[C@H]2CCCCC(=O)*)N1

What was measured:
[1] = test system: β6-ERK2 interaction; assay: ERK2 peptide competition ELISA for β6-ERK2 binding; conditions: increasing concentrations incubated with ERK2
Procedure: To determine the β6-binding domain(s) of ERK2, a biotinylated β6 cytoplasmic tail peptide spanning the cytoplasmic tail of β6 was incubated with a soluble ERK2 peptide fragment in a total incubation volume of 20 μl phosphate buffered saline (PBS). The mixture was stood for 45 minutes at room temperature (RT). Soluble ERK2 in PBS was then added and the solution left for a further 30 minutes. Following incubation the reaction volume was made to 400 μl with carbonate buffer (0.015 M Na2CO3 and 0.035M NaHCO3 at pH 9.6) and 100 μl of this mixture added to each of 4 wells of a polystyrene ELISA plate (Nunc, Maxicorp). ERK2/peptides were allowed to attach to the plastic substrate for 18 to 20 hours at RT in the dark. After immobilisation the overlying buffer was flicked from the wells and excess solid surface blocked with casein (0.5% skim milk) in PBS for 60 minutes at RT. Wells were washed (×3) with was buffer (PBS plus 0.5% skim milk powder, 0.05% Tween-20) prior to incubation with the anti-β6 antibody SC-6632 (Santa Cruz) diluted 1:500 v/v in wash buffer (2 wells) or a control antibody (2 wells). Incubation with the primary antibody was carried out for 30 minutes at RT. […] Specific binding events were quantitatively determined using a colourimetric substrate system by measuring absorbency at […] (Bio-Rad, AP substrate kit). […]

[2] = target: T1, JNK-1 (Homo sapiens, UniProt P45983); assay: ELISA of JNK-1 binding to β6 cytoplasmic tail peptide; conditions: JNK-1 0.05-1.5 μm/100 μl; FIG. 24
T1 construct: purchased Santa Cruz
Procedure: (§1) Overlapping biotinylated fragments 1 to 4 were coated onto streptavidin coated polystyrene plates (Pierce, Rockford Ill. USA, Cat No. 15125) and the ELISA performed substantially according to manufacturers instructions. Briefly, wells are washed with 3×200 μl of wash buffer (TBS, 0.1% BSA, 0.05% Tween 20 or SuperBlock™ blocking buffer in TBS, Pierce, Prod. No. 37535) prior to addition of biotinylated peptides (100 μl) and incubation for 1 hr at room temperature to allow for capture of the peptides on the plate. Following another washing step, peptides were overlayed with GST-ERK, ERK (or JNK-1) alone at a volume of 100 μl per well, and the plates incubated for a further 1 hr at room temperature before removal of any unbound ERK by further washing.
Briefly, 0.05-1.5 μm/100 μl of JNK-1 (Santa Cruz) was aliquoted into wells of a 96 well culture place containing increasing concentrations of the β6 cytoplasmic domain tail peptide used in Example 3. For comparison purposes, non-phosphorylated GST-ERK2 (0.05-1.5 μm/100 μl) was aliquoted into wells containing β6 cytoplasmic tail peptide or peptide fragments 1 or 2, respectively. Binding of JNK-1 was detected using mouse anti-JNK-1 mAb SC 474-G (Santa Cruz) and HRP-conjugated goat anti-mouse antibody.

[3] = target: T2, ERK2 (Mus musculus, UniProt P63085); assay: ELISA of ERK2 binding to biotinylated integrin cytoplasmic domain peptides; conditions: for binding of non-phosphorylated ERK2 to peptide: over a range of concentrations of ERK2, FIG. 18; for binding of ERK2 to peptide: ERK2 cleaved from GST-ERK2 by thrombin, FIG. 23; for binding of peptide to ERK2: ERK2 (1 μm), FIG. 35C; for binding of ERK2 to integrin subunit peptides: corrected for non-specific binding, FIG. 34
T2 construct: GST (glutathione-S-transferase); made in house
Procedure: Peptide fragments corresponding to regions of the cytoplasmic tail domain of the β6 subunit were screened in an enzyme-linked immunosorbent assay (ELISA) for binding with ERK2. The 52 amino acid long β6 cytoplasmic tail is shown in FIG. 16 as are the amino acid sequences for the cytoplasmic domains of the β1 to β3 subunits. In particular, four synthetic peptides designated fragment 1 to fragment 4 were prepared and biotinylated at the N-terminal end of each, respectively (Auspep Pty Ltd, Melbourne Australia).
as §1
Binding of ERK to the peptides is detected using 100 μl anti-ERK1/2 mAb SC1647 (Santa Cruz) as the primary antibody at a dilution of 1:700 (isotype matched antibody IgG2b is used as a control). This is followed by another washing step and addition of 100 μl rabbit anti-mouse antibody (Biorad) conjugated to alkaline phosphatase at a concentration of 1:1000 for 30 minutes again at room temperature. A […] of detection reagent (alkaline phosphatase detection kit-Biorad) is then introduced into each well after a final washing step and allowed to react for 15-30 minutes at room temperature in the dark before absorbance is measured at 405 nm. All dilutions of peptides, MAP kinase and antibodies were performed using the wash buffer. GST-ERK is a fusion protein consisting of ERK coupled to glutathione-S-transferase and purified from host cells transfected with pGEX vector.
To further localise the binding domain on the cytoplasmic tail of the β6 subunit, progressively shorter peptides from the region of the β6 cytoplasmic tail corresponding to peptide fragment 2 were synthesised, biotinylated and the capacity to associate or otherwise bind to ERK2 assessed as described above. The binding of GST.ERK2 to a 15 mer test peptide (seq. 4) having the amino acid sequence RSKAKWQTGTNPLYR (SEQ ID NO: 7) and a 10 mer test peptide having the sequence RSKAKWQTGT (SEQ ID NO: 21) is shown in FIG. 20 compared to fragment 2 over a range of concentrations of the peptides. […] 4 peptide compared to fragment 2 was found. Binding of ERK2 to the seq. 3 peptide was substantially less than that observed for seq. 4.
Binding of ERK2 to the seq.4 peptide (RSKAKWQTGTNPLYR) (SEQ ID NO: 7) was compared with peptides corresponding to regions of the cytoplasmic domain of integrin subunits β1, β2, β3 and β5. The amino acid sequences for those peptides is shown below:
To evaluate this, cell lysates containing equal protein loads were prepared from SW480 wild-type cells and SW480 cells transfected with either vector alone (mock transfectants), wild type β6 or the β6 deletion mutant Δ746-764 (lacking the sequence EAERSKAKWQTGTNPLYRG (SEQ ID NO: 26), Cone et al, 1994). The lysates were immunoprecipitated with mAbs R6G9 (anti-β6), P1F6 (anti-β5) or murine IgG control antibody (mlgG). […] To determine whether β5 can bind ERK2 in vitro, a 15-mer peptide fragment derived from the β5 cytoplasmic domain corresponding to the ERK binding domain on β6 was tested for its ability to bind ERK2 in an ELISA.

[4] = test system: MAP kinase activity in HT29 wild-type cells; assay: MAP kinase assay, serum-stimulated HT29 cells; assay type: cell-based, human; conditions: inhibitors 40 μM added one hour before serum, serum 30 min
Procedure: (§2) Cultures of WiDr and HT29 mock and antisense β6 transfectants were established by seeding 1×10^6 cells/5 ml of culture medium in 25 cm^2 tissue culture flasks. Cells were incubated at 37° C. in humidified CO2 for 24 hours before serum starvation in serum-free medium for the next 16 hours. Foetal calf serum was then added to a final concentration of 10% for 30 mins before MAP kinase assays were performed. […] The ability of cells to transfer phosphate from [γ^32P]-ATP to a synthetic peptide that contains specifically a p42/p44 MAP kinase phosphorylation site was measured as described in the manufacturer's instructions. [^32P]-labelled peptides were spotted onto PEI-cellulose paper, unbound radioactivity was washed with 75 mM phosphoric acid and bound [^32P]-labelled peptides were measured by liquid scintillation counting. Protein estimation was performed on each cell lysate used and enzyme activity calculated as described in the manufacturer's instructions. […]
(§3) The effect of MEK (MAP kinase) inhibitors UO126 and PD98059 on MAP kinase activity in WiDr and HT29 wild-type cells was tested in the absence/presence of serum. […] Serum was then added for 30 min and MAP kinase activity assessed before and after addition of serum. […]

[5] = test system: MAP kinase activity in WiDr wild-type cells; assay: MAP kinase assay, serum-stimulated WiDr cells; assay type: cell-based, human; conditions: inhibitors 40 μM added one hour before serum, serum 30 min
Procedure: as §2, §3

[6] = test system: gelatinase B secretion by SW480 β6 transfectants; assay: Gelatinase B secretion, gelatin zymogram of tumour-conditioned medium; assay type: cell-based, human; conditions: 40 μM, serum-free, 48 hours, versus DMSO control
Procedure: SW480 β6 transfectants were cultured under serum-free conditions for 48 hours in the absence/presence of the MEK inhibitor PD98059 (40 μM) or DMSO (vehicle control). Tumour-conditioned medium was assayed for gelatinase B by analysis of equal protein loads in a gelatin zymogram.

T2 sequence (P63085 whole entry, the tested form may be a part): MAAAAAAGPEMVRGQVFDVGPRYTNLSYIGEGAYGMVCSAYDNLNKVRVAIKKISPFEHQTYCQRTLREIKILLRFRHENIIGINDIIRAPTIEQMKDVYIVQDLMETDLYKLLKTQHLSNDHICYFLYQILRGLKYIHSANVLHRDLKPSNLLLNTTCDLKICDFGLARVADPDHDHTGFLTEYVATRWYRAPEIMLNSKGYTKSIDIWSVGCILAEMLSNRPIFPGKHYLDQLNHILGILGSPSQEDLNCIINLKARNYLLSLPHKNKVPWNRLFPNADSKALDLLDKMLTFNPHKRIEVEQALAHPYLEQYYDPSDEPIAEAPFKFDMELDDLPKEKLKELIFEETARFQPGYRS
T1 sequence (P45983 whole entry, species assumed): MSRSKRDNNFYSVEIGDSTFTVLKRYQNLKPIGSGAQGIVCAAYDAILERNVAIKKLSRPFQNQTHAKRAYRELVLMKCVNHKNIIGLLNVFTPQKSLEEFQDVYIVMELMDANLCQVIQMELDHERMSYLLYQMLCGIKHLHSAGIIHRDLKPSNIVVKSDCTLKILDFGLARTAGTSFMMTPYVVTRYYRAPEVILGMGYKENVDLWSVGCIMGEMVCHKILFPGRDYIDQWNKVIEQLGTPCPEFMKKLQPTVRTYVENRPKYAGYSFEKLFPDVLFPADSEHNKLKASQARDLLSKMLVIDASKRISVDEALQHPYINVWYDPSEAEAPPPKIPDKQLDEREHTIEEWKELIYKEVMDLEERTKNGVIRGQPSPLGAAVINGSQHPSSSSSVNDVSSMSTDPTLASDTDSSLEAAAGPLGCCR

## β6 cytoplasmic tail peptide: peptide spanning the 52 amino acid long β6 cytoplasmic tail (HDRKEVAKFEAERSKAKWQTGTNPLYRGSTSTFKNVTYKHREKQKVDLSTDS)
[1]
  concentration at which maximal β6 bound to ERK was detected: 0.25 µM
[2]
  binding of JNK-1 to peptide: Significant binding
[3]
  binding of non-phosphorylated ERK2 to peptide: Significant binding

## RSKAK (also: biotinylated, site not given here) [5 mer peptide]
[3]
  binding of ERK2 to peptide: Negligible binding

## RSKAKWQTGT (also: biotinylated, site not given here) [seq. 3, 10 mer test peptide of the β6 cytoplasmic tail]
[3]; over a range of concentrations of the peptides, compared to fragment 2, FIG. 20
  binding of GST.ERK2 to peptide: substantially less than that observed for seq. 4

## RSKAKWQTGTNPLYRGSTST (Biotin-RSKAKWQTGTNPLYRGSTST) [fragment 2, biotinylated peptide of the β6 cytoplasmic tail]
[3]; GST.ERK2 0.25 μg/100 μl, peptide 1 μg/100 μl, FIG. 17
  binding of non-phosphorylated GST.ERK2 to peptide: significant binding
[3]
  binding of non-phosphorylated ERK2 to peptide: Significant binding

## RSRARYEMASNPLYR [β5, 15-mer peptide of the β5 cytoplasmic domain]
[3]
  binding of peptide to ERK2: Dose-dependant binding
  binding of ERK2 to integrin subunit peptides: Binding of ERK2 to the β5 and β3 peptides was also found

## COc1cccc(-c2cc(=O)c3ccccc3o2)c1N [PD98059]
[4]
  serum-stimulated MAP kinase activity: inhibitable
[5]
  serum-stimulated MAP kinase activity: inhibitable
[6]
  gelatinase B secretion: reduced gelatinase B secretion compared with controls

## RARAKWDTANNPLYK [β3, peptide of the β3 cytoplasmic domain]
[3]
  binding of ERK2 to integrin subunit peptides: Binding of ERK2 to the β5 and β3 peptides was also found

## KFEKEKMNAKWDTGENPIYK [β1, peptide of the β1 cytoplasmic domain]
[3]
  binding of peptide to ERK2: failed to bind ERK2

## RSKAKNPLYR [10(4), 4 is omitted]
[3]
  binding of ERK2 to peptide: Comparable binding of ERK2 to seq. 4
